Test results taken from US12723255B2, “Herbicide tolerance genes and methods of use thereof” (priority 2014, dated 2026).
Like-named read-outs stand apart in the source and are kept apart here.

Legend:
F1 hybrid maize plants = test: efficacy field trial with segregating F1 hybrid plants; format: in vivo; conditions: CTP A; for % Injury from V4 2,4-D / % Injury from V8 2,4-D: 2,4-D amine 2× at VE-V2 (plus quizalofop-P 0.5×), V4, V8; for % Injury from V4 Quizalofop / % Injury from V8 Quizalofop: quizalofop-P 2× at VE-V2, V4, V8
Procedure: Ten unique engineered proteins optimized for activity at higher temperatures were selected for maize transformation and analysis in plants. DNA constructs were produced for expressing these engineered proteins with codon usage optimized for monocot expression using methods known to those skilled in the art. Enhancers, promoters, leaders, introns, CTPs, and 3′UTRs were tested in various combinations with the engineered proteins in these DNA constructs. The DNA constructs were used to transform immature maize (LH244) embryos with these vectors using Agrobacterium tumifaciens and standard methods known in the art. Regenerated R0 transgenic plantlets were grown in the green house.
Transgenic R0 maize plants were screened by the application of quizalofop-P (2×) plus 2,4-D (2×) at 7 to 10 days following transplant into plugs (generally corresponding to V3-V4 growth stage). All constructs tested produced plants containing unique events that passed the RO screen. The R0 plants were selfed to generate R1 homozygous seed and the R0 was also used as the male to cross with inbred plants containing maize event MON89034 to generate segregating F1 hybrid seed for efficacy field trials.
An efficacy field trial was conducted with segregating F1 hybrid plants, with 50% hemizygous and 50% null for the transgene. Tolerance to quizalofop-P (2×) plus 2,4-D (2×) was assessed using two herbicide application regimens: (1) quizalofop-P (Assure II) at 0.16 lb ai/acre (2×) plus 0.25% v/v non-ionic surfactant (NIS) applied at VE-V2 growth stage followed by the same at V4 growth stage followed by the same at V8 growth stage and (2) 2,4-D amine at 2 lb ae/acre (2×) plus quizalofop-P at 0.04 lb ai/acre (0.5×) plus 0.25% v/v NIS applied at VE-V2 growth stage followed by 2,4-D amine at 2 lb ae/acre (2×) plus 0.25% v/v NIS applied at V4 growth stage followed by the same at V8 growth stage. The 50% of the plants that were null for transgene were removed by the first quizalofop-P application at VE-V2 growth stage. Plots were visually rated 10-14 days after application for crop injury on a scale of 0 to 100 with “0” being none and “100” being complete crop destruction. […] The percentage injury rating with 2× application of 2,4-D at V8 growth stage ranged from a high of 40% to a low of 0. Similarly, the percentage injury rating with 2× application of quizalofop-P at V8 growth stage ranged from a high of 90% to a low of 0. Variation in injury rating between plants expressing the same protein is likely due to variations in construct design or transgene insertion location.

[1] = kinetic analysis, non-endpoint assay at 23° C.; format: biochemical; conditions: standard error in parenthetical
Outline: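 Purified C-terminal 6-His-tagged recombinant enzymes expressed in bacteria; quizalofop-P or 2,4-D as substrate. Vmax reported as specific activity (umol herbicide product mg enzyme-1 min-1) and Km as mM herbicide substrate, with standard error.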

[2] = format: physicochemical; conditions: buffer; for T1/2, temperature where 50% of the protein was unfolded, Buffer: pH 7.5
Outline: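 Thermal shift assay: purified enzyme in 30 mM Tris pH7.5, 150 mM NaCl, with or without 50 uM Fe2+ and 1.0 mM aKG. Unfolding followed by SYPRO orange fluorescence from 10° C. to 95° C. in 0.5° C. steps; melting temperature (T1/2) taken from the curve.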

[3] = enzyme activity assay at 23° C. with purified enzyme; format: biochemical; conditions: for maximum activities for all four substrates compared with the wild-type enzyme: haloxyfop, fenoxaprop, fluazifop and dichlorprop; for maximum activity as a percentage of the wild-type enzyme's activity, Haloxyfop: purified enzyme; for maximum activity as a percentage of the wild-type enzyme's activity, Haloxyfop / maximum activity as a percentage of the wild-type enzyme's activity, Dichlorprop / maximum activity as a percentage of the wild-type enzyme's activity, Fenoxaprop / maximum activity as a percentage of the wild-type enzyme's activity, Fluazifop: wild-type set at 100%
Procedure: The enzyme activity of MON-HT protein variants with haloxyfop, fenoxaprop, fluazifop, and dichlorprop as substrates was determined using the enzyme activity assay conducted at 23° C. with purified enzyme. The activity was recorded as the maximum activity as a percentage of the wild-type enzyme's activity, which was set at 100%.

[4] = 23° C., purified His-tagged protein
[5] = 23° C., purified His-tagged protein, read-out: Km Quizalofop
[6] = NDB = activity not robust enough for kinetic characterization

B1: MON-HT4: engineered oxygenase protein, amino acid sequence SEQ ID NO:25 (protein)
chain: MHAALTPLTNKYRFIDVQPLTGVLGAEITGVDLREPLDDSTWNEILDAFHTYQVIYFPGQAITNEQHIAFSRRFGPVDPVPLLKSIEGYPEVQMIRREANESGRVIGDDWHTDSTFLDAPPAAVVMYAREVPPYGGDTGFLSMYTAWETLSPTMQATIEGLNVVHSATRVFGSLYQAQNRRYSNTSVKVMDVDAGDRETVHPLVVSHPVTGRRALYCNQVYCQRIEGMTDAESKSLLQFLYEHATKFDFTCRVRWKKDQVLVWDNLCTMHRAVPDYAGKFRYLTRTTVAGDKPSR
For B1, the “% Injury from V4 2,4-D” value (F1 hybrid maize plants) was 22.3%, the “% Injury from V8 2,4-D” value (F1 hybrid maize plants) was 12.3% and the “% Injury from V4 Quizalofop” value (F1 hybrid maize plants) was 6.1%. For the same molecule, the “% Injury from V8 Quizalofop” value (F1 hybrid maize plants) was 0%, the “Vmax Quizalofop” value [1, 4] was 0.30 (−0.02) umol herbicide product mg enzyme-1 min-1 and the Km [1, 5] was 240 µM. The “Km 2,4-D” value [1, 6] was “NDB”, the “Vmax 2,4-D” value [1, 6] was “NDB” and the “T1/2, temperature where 50% of the protein was unfolded, Buffer plus Fe2+ and aKG” value [2] was 44 °C. The “T1/2, temperature where 50% of the protein was unfolded, Buffer” value [2] was 43 °C, the “maximum activities for all four substrates compared with the wild-type enzyme” value [3] was “lower than, or equal to” and the “maximum activity as a percentage of the wild-type enzyme's activity, Haloxyfop” value (shortened to “maximum activity as a percentage … Haloxyfop”) [3] was 49%. The “maximum activity as a percentage of the wild-type enzyme's activity, Dichlorprop” value (shortened to “maximum activity as a percentage … Dichlorprop”) [3] was 39%, the “maximum activity as a percentage of the wild-type enzyme's activity, Fenoxaprop” value (“maximum activity as a percentage … Fenoxaprop” for short) [3] was 53% and the “maximum activity as a percentage of the wild-type enzyme's activity, Fluazifop” value (shortened to “maximum activity as a percentage … Fluazifop”) [3] was 52%.

B2: MON-HT5: engineered oxygenase protein, amino acid sequence SEQ ID NO:28 (protein)
chain: MHAALTPLTNKYRFIDVQPLTGVLGAEITGVDLREPLDDSTWNEILDAFHTYQVIYFPGQAITNEQHIAFSRRFGPVDPVPLLKSIEGYPEVQMIRREANESGRVIGDDWHTDSTFLDAPPAAVVMRAIEVPEYGGDTGFLSMYSAWETLSPTMQATIEGLNVVHSATKVFGSLYQATNWRFSNTSVKVMDVDAGDRETVHPLVVTHPVTGRRALYCNQVYCQKIQGMTDAESKSLLQFLYEHATKFDFTCRVRWKKDQVLVWDNLCTMHRAVPDYAGKFRYLTRTTVAGDKPSR
With B2 the “% Injury from V4 2,4-D” value (F1 hybrid maize plants) was 27.2%, the “% Injury from V8 2,4-D” value (F1 hybrid maize plants) was 17.4% and the “% Injury from V4 Quizalofop” value (F1 hybrid maize plants) was 6.8%. The “% Injury from V8 Quizalofop” value (F1 hybrid maize plants) was 1.7%, the “Vmax Quizalofop” value [1, 4] was 0.57 (−0.03) umol herbicide product mg enzyme-1 min-1 and the Km [1, 5] was 170 µM. For the same molecule, the “Km 2,4-D” value [1, 6] was “NDB”, the “Vmax 2,4-D” value [1, 6] was “NDB” and the “T1/2, temperature where 50% of the protein was unfolded, Buffer plus Fe2+ and aKG” value [2] was 61 °C. The “T1/2, temperature where 50% of the protein was unfolded, Buffer” value [2] was 60 °C, the “maximum activities for all four substrates compared with the wild-type enzyme” value [3] was “lower than, or equal to” and the “maximum activity as a percentage … Haloxyfop” value [3] was 100%. The “maximum activity as a percentage … Dichlorprop” value [3] was 36%, the “maximum activity as a percentage … Fenoxaprop” value [3] was 92% and the “maximum activity as a percentage … Fluazifop” value [3] was 46%.

B3: MON-HT3: engineered oxygenase protein, amino acid sequence SEQ ID NO:22 (protein)
chain: MHAALSPLSQRFERIAVQPLTGVLGAEITGVDLREPLDDSTWNEILDAFHTYQVIYFPGQAITNEQHIAFSRRFGPVDPVPLLKSIEGYPEVQMIRREANESGRVIGDDWHTDSTFLDAPPAAVVMYAKEVPPYGGDTLFASMYTAWETLSPTMQATIEGLNVVHSATRVFGSLYQAQNRRFSNTSVKVMDVDAGDRETVHPLVVTHPETGRKGLYVNQVYCQRIEGMSEKESEPLLSFLFAHATKPEFTCRVRWQEGQVLVWDNLCTQHFAVPDYAGKFRYLTRTTVGGVRPAR
In the case of B3, the “% Injury from V4 2,4-D” value (F1 hybrid maize plants) is reported as 21.7%, the “% Injury from V8 2,4-D” value (F1 hybrid maize plants) is reported as 9.2% and the “% Injury from V4 Quizalofop” value (F1 hybrid maize plants) is reported as 1.6%. The “% Injury from V8 Quizalofop” value (F1 hybrid maize plants) was 0.5%, the “Vmax Quizalofop” value [1, 4] was 0.77 (−0.04) umol herbicide product mg enzyme-1 min-1 and the Km [1, 5] was 380 µM. For the same molecule, the “Vmax 2,4-D” value [1, 6] was 0.10 (−0.01) umol herbicide product mg enzyme-1 min-1, the Km ([1]; NDB = activity not robust enough for kinetic characterization, read-out: Km 2,4-D) was 270 µM and the “T1/2, temperature where 50% of the protein was unfolded, Buffer plus Fe2+ and aKG” value [2] was 48 °C. The “T1/2, temperature where 50% of the protein was unfolded, Buffer” value [2] was 46 °C, the “maximum activities for all four substrates compared with the wild-type enzyme” value [3] was “lower than, or equal to” and the “maximum activity as a percentage … Haloxyfop” value [3] was 67%. For the same molecule, the “maximum activity as a percentage … Dichlorprop” value [3] was 100%, the “maximum activity as a percentage … Fenoxaprop” value [3] was 83% and the “maximum activity as a percentage … Fluazifop” value [3] was 60%.

B4: MON-HT9: engineered oxygenase protein, amino acid sequence SEQ ID NO:40 (protein)
chain: MHAALTPLTNKYRFIDVQPLTGVLGAEITGVDLREPLDDSTWNEILDAFHTYQVIYFPAQQITNEQHISFSRRFGPVDPVPLLKSIEGYPEVQMIRREANESGRILGDDWHTDSTFLDAPPAAVVMRAIEVPEYGGDTGFLSMYSAWDTLSDTMKATIEGLNVVHSATRVFGSLYQAQNWRFSNTSVKVMDVDAGDRETVHPLVVSHPVTGRRALYCNQVYCQRIEGMTDAESKCLLQFLYEHATKFDFTCRVRWKKDQVLVWDNLCTMHRAVPDYAGKFRYLTRTTVAGDRPAR
For B4, the “% Injury from V4 2,4-D” value (F1 hybrid maize plants) was 20%, the “% Injury from V8 2,4-D” value (F1 hybrid maize plants) was 40% and the “% Injury from V4 Quizalofop” value (F1 hybrid maize plants) was 5%. For the same molecule, the “% Injury from V8 Quizalofop” value (F1 hybrid maize plants) was 5%, the “Vmax Quizalofop” value [1, 4] was 0.53 (−0.02) umol herbicide product mg enzyme-1 min-1 and the Km [1, 5] was 100 µM. For the same molecule, the “Km 2,4-D” value [1, 6] was “NDB”, the “Vmax 2,4-D” value [1, 6] was “NDB” and the “T1/2, temperature where 50% of the protein was unfolded, Buffer plus Fe2+ and aKG” value [2] was 60 °C. The “T1/2, temperature where 50% of the protein was unfolded, Buffer” value [2] was 61 °C, the “maximum activities for all four substrates compared with the wild-type enzyme” value [3] was “lower than, or equal to” and the “maximum activity as a percentage … Haloxyfop” value [3] was 91%. For the same molecule, the “maximum activity as a percentage … Dichlorprop” value [3] was 19%, the “maximum activity as a percentage … Fenoxaprop” value [3] was 67% and the “maximum activity as a percentage … Fluazifop” value [3] was 41%.
